Test results as given in paper doi:10.1101/2022.03.21.485124.

Tests used:
Test in all cases: SEC
[1] = target: wild-type human CD81 large extracellular loop domain (wt-hCD81LEL) (human)
[2] = target: human CD81 large extracellular loop domain, mutant D139N (human)
[3] = target: human CD81 large extracellular loop domain, mutant E188Q (human)

A stoichiometry N [1] of 2 was found for “wild-type human CD81 large extracellular loop domain (wt-hCD81LEL) (domain or fragment)” in this work.

A stoichiometry N [2] of 2 was found for “human CD81 large extracellular loop domain, mutant D139N (domain or fragment)” in this work.

A stoichiometry N [3] of 2 was found for “human CD81 large extracellular loop domain, mutant E188Q (domain or fragment)” in this work.
